Protein production data for seven sequences are collected here from a protein production outcome set (Wang et al. 2014).

The nature of this data set: label from the status in PepcDB records.

Consider “MTSHTPKFHRLAIAELRRETQDAVSMSFTIPDEIAADYTFAPGQYLTLRTTLDGEELRRSYSICSGPDDRELRIAVKKVNGGAFSGWALEQLKSGDQIEVMTPSGRFGVAHAPGESRVHVGFAAGSGITPLISIIRGILAREPNSRFFLFYGNRTTSNILFRQALQDLKDRFMARLAVFHVLSQEEQDLPILHGRLDRDRVTLLLRAMLPAQAIDHVFICGPTAMSEEIAATCAELGVPADRVHVERFVAGSGGKPRPTPVIAPQAPPAAIAALIIDGKRKEVPVAAGEAILDAALRAGIDLPYACKGGMCSTCRAKVVEGETRMDVNYSLEPWELDAGFVLTCQAHPVSDRVVIDYDAV”, for which the protein production result is given as “failed”.

For “MTSKHFISKKEAKRIWEAMARYGIDITGESLEVAAQKSASAYYIGGKPMVFQAGDLIPSVYLLNYRNPSRNIVTVDEGAEPHILNGSDLFAPGIVSMDDSIRKGDMIFVKSSKGYFIAVGMAEMDAGEVMATKRGKAARIIHFPGDELIRAFP”, the protein production entry is “not failed”.

Turning to “MTSLNRPPFDFKTQYSLGFNAQDDEIVVDFFCGGGGAGTGLEMGLGRKVSVAKNHSAAAISMHTANHPGAKHFTTDVFDGDPDTECGGKAVGWFHMSPDCTHHSQAAGGQPRKREIRNLSWIGLKWAGKKKPRVVSLENVKQILQWGPLVAKRCKSTGRVVKLGGGIAAPGEVVPVDQQFLVPDPARRGQTWAVFVAELERLGYAVEWRVVRACDFGAPTSRERLFMIARCDGQSIVWPEPTHAKRPSKGQQPLKSAAECIDFSDLGKSIFERKKDLAQATLRRVAKGM”, the protein production result is “failed”.

Take “MTSNGQQGKPNLPEKDNLPRELGTQRINSPIARMGMFGAKTTGDTSGYGRLRVYRHVPAAAQRPYSDPSDPRTAYFDEVADALERSLKEIGTPYDTAISRVVVDRGEITFHVQREHLLDVATRLRDDPALRFELCLGVTGVHYPEDEGNELHAVYALRSITHNYEIRLEVSCPDSDPHIPSIVSVYPTNDWHEREAWDFFGIIFDGHPALTR”: the protein production entry is listed as “not failed”.

With “MTSPSSAFPDGHGARLDAQSIRFERLLPGPIERVWAWLADADKRARWLAGGELPRQPGQTFELHFNHAALTAETAPARYAQYDRPIVARHTLLRCEPPRVLALTWGGGAGEAPSEVLFELSEAGEQVRLVLTHTRLADRAAMLDVAGGWHAHLAVLAGKLAGQAPPPFWTTLAQAEQDYEQRLLEHHHHHH”, the protein production entry is given as “not failed”.

In the case of “MTSQITANGTQRLPEPVSEHEAVPPPPPTAAGRPRPPTSQLFSRGNLASSRATGGDKSGLARPSTAVRAVGYAANCESAHQRFEQFFLEKAKQQTLSSRAAVDAIKDVNPQMKYKNLEEKIVKLLESSIVLAWQGSPNKLLNLDTKLAEALSKAKEAFSLDRTLHQFRDQHGENVYHNFDLTYAQYERSEMHIEALNTYSIMAKNKMFPHVNQLKLNMGNIYYSMGIYQKAVKMYRMALDSVPKSLSQLRLKIRENIGILFIRMGSYSDAASSFEFIMTERANIRSSIHLLLCYFALGDVEKVKLAFRRLCDVQTEAIESDMESETNIIKLQQQAEPIQQIGETDGYQSLNNEPVTGSVIKAEGGGKLNETVKFAATVKHRYVVQALKKDELAVYRNERRNAVKRSITMIVDLISPFIEDNYNDGYNWCIEIIKTSNLAWLANELELNKALVYLRQNDVHQAIETLQMYDRKSEGSMTASALTNLSFIYIKMASHCVNQLHEIGSLKNNAPGLINAGIVELGSHNLILASERFEGALQLQPMNFEARYNLGLVALAQNDYELAEERFELLKEQLMLPSSVQHSHVFYQLAKLQERRLESGLISNFTPGAALQAYLQVVGISASDIDSRLFEKVGSLYEQIQDHQEANQYYNEAYRINMSDIGIASSIGSYYIKLQATERALFYYERAVLADPNDPNLMLRIASCFRNSYLPTKQYLGLFQKIHARFPDNLTCIRALMQVTKSLELGDLYERYASEYTRLQSQQQERQSEQRYQQQRFPSAAKFTIRQSNEEHLKEVGENFNSVVHTQSPYTSILQFDPLGPPAERPKTGRPLQSRDDVDDDAEMNPESLLPI”, the protein production entry is on record as “failed”.

On to “MTSRSATATARTSSEARAVARTQTLIKGEHGIGTVRRTTLPGGLRIVTETLPSVRSATFGIWAHVGSRDETPALNGATHYLEHLLFKGTRKRSALDISSAIDAVGGEMNAFTAKEYTCYYARVLDTDLPLAIDVVCDMLTGSLIQEEDVDVERGAILEEIAMTEDDPGDCVHDLFAHTMFGDNALGRPVLGTVDTVNALTADRIRRFYRKHYDPTHLVVAAAGNVDHNKVVRQVRAAFEKSGALKDPAAQPLAPRAGRRTVRAAGRVELIGRKTEQAHVILGMPGLARTDERRWAMGVLNTALGGGMSSRLFQEVREKRGLAYSVYSYTSGFADCGLFGVYAGCRPSQVHDVLKICRDELDHVAEHGLTDDEIGRAVGQLQGSTVLGLEDTGALMNRIGKSELCWGEQMSVDDMLARIASVTPDDVRAVARDVLGRRPSLSVIGPLKDKQASRLHDAVA”, for which the protein production entry is given as “failed”.
